Measured values from patent US8394770B2 (priority 2007, dated 2013).
Where two headings read alike, the source gives them in different places. Positions of bridges follow the written chain, without caps; N, C: chain ends. No end group written: not given here.

Key:
DP-BB/W rats = details: repeated daily administration, assayed at 110 days of age, vs vehicle; cited from earlier work
[1] = electrophysiological experiments; cited from earlier work
rat brain synaptosomes = details: binding to rat brain synaptosomes; cited from earlier work
mice = assay: In vivo toxicity / lethality test by injection into mice; details: injected, up to 10,000 microgram per 20 gram mouse weight (so in the source)
hKv1.2 [2] = biological target: T1, hKv1.2 (Homo sapiens, UniProt P16389); assay: Patch-clamp block of hKv1.2 channels expressed in Cos-7 cells
mKv1.1 = mKv1.1 (Mus musculus, UniProt P16388); assay: Patch-clamp block of mKv1.1 channels stably expressed in L929 cells; details: 10 nM
hIKCa1 = hIKCa1 (Homo sapiens, UniProt O15554); assay: Patch-clamp block of recombinant hIKCa1 channels expressed in Cos-7 cells (voltage ramps); details: 10 nM
Protocol: The current carried by IKCa1 channels can be measured using a pipette filling solution having 1 μM free Ca^2+ concentration, which is sufficient to fully activate these channels [Grissmer et al., 1993].
Cos-7 cells were maintained in standard cell culturing conditions [Bagdany at al, 2005]. […] The normal extracellular solution is the same as described above. […] This solution contained 1 μM free Ca^2+ concentration to fully activate the hIKCa1 current. All other recording conditions (data acquisition, perfusion etc.) were identical to the description above for Kv1.3 channels.
Two hundred millisecond-long voltage ramps from −120 mV to +50 mV from a holding potential of −120 mV were used to elicit hIKCa1 currents in Cos-7 cells (ramp speed 0.85 mV/ms). Voltage ramps were run every 10 s. […] The reversal potential of the current is −75 mV, which is characteristic to a K^+ conductance based on the ionic composition of the recording solutions. For IKCa1 currents the slope (s) of the linear current-voltage relationship can be used to characterize the current block [Grissmer et al., 1993]. […] Error bars indicate SEM for n=3 independent experiments.

hKv1.3 channels [3] = biological target: T2, hKv1.3 channels (Homo sapiens, UniProt P22001); assay: Whole-cell patch-clamp block of hKv1.3 channels endogenously expressed in human peripheral blood T cells; assay type: cell-based; set-up: channels expressed endogenously in human peripheral blood T cells; endogenous in cells; host or cells: human peripheral blood T lymphocytes from healthy volunteers, PHA-stimulated
hKv1.2 [4] = biological target: T1, hKv1.2
hKv1.3 channels [5] = biological target: T2, hKv1.3 channels
[6] = biological target: mKv1.1 channel (Mus musculus (Mouse)) (UniProt P16388)
hKv1.3 channel [7] = biological target: T3, hKv1.3 channel (human, UniProt P22001)
[8] = biological target: hIKCa1 channel (EGFP-tagged) (human) (UniProt O15554); assay: ratio of Kd values from patch clamp, reference hKv1.3
mKv1.1 channel = mKv1.1 channel (Mus musculus (Mouse), UniProt P16388); assay: as above
hKv1.2 channel = hKv1.2 channel (human, UniProt P16389); assay: as above
hKv1.3 channel [9] = biological target: T3, hKv1.3 channel; assay: patch clamp on human lymphocytes (summary of the result)
hKv1.3 channel [10] = biological target: T3, hKv1.3 channel; assay: whole-cell patch clamp; recovery of hKv1.3 current on wash-out after 3 pM Vm24
hKv1.3 channels [11] = biological target: T2, hKv1.3 channels; remark: listed apart in the source

T2 sequence (P22001 whole entry): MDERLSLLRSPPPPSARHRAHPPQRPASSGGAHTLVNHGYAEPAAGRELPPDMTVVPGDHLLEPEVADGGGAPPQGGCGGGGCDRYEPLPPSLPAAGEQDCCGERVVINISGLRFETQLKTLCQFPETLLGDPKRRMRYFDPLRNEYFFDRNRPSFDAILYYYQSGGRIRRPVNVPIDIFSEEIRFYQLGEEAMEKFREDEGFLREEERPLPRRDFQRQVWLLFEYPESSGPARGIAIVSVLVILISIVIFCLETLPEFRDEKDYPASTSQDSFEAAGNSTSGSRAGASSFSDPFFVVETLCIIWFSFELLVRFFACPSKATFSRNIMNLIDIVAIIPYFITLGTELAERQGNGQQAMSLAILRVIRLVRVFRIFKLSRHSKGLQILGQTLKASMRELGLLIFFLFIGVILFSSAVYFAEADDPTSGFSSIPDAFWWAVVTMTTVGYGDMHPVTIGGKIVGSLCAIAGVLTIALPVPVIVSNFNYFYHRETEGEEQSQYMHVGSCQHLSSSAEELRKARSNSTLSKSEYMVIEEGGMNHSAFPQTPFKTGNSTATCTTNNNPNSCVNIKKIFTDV
T1 sequence (P16389 whole entry): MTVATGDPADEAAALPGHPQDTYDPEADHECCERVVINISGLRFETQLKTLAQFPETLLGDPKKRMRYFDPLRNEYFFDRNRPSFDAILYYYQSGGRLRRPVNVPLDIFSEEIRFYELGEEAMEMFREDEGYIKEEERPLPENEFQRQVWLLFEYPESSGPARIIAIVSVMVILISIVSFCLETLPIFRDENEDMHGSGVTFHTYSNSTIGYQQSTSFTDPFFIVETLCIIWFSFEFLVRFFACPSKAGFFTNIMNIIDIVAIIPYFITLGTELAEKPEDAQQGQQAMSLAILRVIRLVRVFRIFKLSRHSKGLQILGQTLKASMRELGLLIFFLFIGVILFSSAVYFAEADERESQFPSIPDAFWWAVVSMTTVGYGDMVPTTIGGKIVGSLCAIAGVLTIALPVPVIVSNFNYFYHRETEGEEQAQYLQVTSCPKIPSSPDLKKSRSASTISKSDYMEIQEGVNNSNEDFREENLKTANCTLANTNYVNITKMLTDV
Chain of mKv1.1 (P16388 whole entry): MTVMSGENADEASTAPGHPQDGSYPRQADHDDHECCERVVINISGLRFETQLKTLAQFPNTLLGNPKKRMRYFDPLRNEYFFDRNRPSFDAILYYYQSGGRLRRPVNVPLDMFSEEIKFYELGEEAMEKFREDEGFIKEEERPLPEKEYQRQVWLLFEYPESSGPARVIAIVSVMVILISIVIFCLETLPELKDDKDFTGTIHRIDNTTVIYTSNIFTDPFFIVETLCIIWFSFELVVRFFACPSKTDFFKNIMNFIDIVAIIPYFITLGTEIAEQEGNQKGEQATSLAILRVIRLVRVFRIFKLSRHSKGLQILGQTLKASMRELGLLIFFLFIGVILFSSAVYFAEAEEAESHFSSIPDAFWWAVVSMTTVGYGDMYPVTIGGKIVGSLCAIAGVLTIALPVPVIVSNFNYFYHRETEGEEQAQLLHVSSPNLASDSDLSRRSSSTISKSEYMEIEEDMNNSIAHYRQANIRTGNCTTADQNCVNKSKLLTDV
Chain of hIKCa1 (O15554 whole entry): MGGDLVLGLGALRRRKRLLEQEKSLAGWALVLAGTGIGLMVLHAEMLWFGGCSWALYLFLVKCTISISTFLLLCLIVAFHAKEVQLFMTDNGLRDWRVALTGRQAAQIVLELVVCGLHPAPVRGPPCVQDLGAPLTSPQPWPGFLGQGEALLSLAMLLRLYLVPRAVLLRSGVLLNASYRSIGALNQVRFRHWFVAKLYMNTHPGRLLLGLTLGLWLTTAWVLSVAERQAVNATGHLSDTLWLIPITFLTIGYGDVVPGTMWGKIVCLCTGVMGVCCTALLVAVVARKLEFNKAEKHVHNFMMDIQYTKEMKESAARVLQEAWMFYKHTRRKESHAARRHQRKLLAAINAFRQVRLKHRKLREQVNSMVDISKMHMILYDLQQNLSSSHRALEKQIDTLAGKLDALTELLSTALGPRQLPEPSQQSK
Chain of mKv1.1 channel (Mus musculus (Mouse)) (P16388 whole entry): as the sequence (P16388 whole entry) above
Chain of hIKCa1 channel (EGFP-tagged) (human) (O15554 whole entry): as the sequence (O15554 whole entry) above

O=c1ccc2c(OCCCCOc3ccccc3)c3ccoc3cc2o1 [PAP-1]
reduction of the fraction of rats showing symptoms of EAD (DP-BB/W rats): ~50%

HsTx1: toxin of the scorpion Heterometrus spinnifer, SEQ ID NO: 6
potency of amidated form relative to free-carboxyl-terminal form [1]: 5 fold
activity of amidated form relative to free-carboxyl-terminal form (rat brain synaptosomes): up to 300 fold

Vm23: 35 amino acid peptide from V. mexicanus venom, SEQ ID NO:1, four disulfide bridges, 83% identical to Vm24 (AAAISCVGSKECLPKCKAQGCKSGKCMNKKCKCYC; not fully specified (bridges); also: four disulfide bridges (pairing not given here))
toxicity in experimental animals (mice): not toxic
current inhibition hKv1.2 (hKv1.2 [2]; 10 nM): ~9%
time for equilibrium block of hKv1.2 to develop (hKv1.2 [2]; 10 nM): 3.5 min
remaining current fraction (RCF) hKv1.2 (hKv1.2 [2]; 10 nM, n=3): 0.91±0.02
reversibility of hKv1.2 block (hKv1.2 [2]; after 10 nM, wash-out): not readily reversible within 2 min
block of mKv1.1 (mKv1.1): practically does not block
current inhibition mKv1.1 (mKv1.1): ~3%
block of hIKCa1 (hIKCa1): practically does not block
current inhibition hIKCa1 (hIKCa1): ~1%
blockage of hKv1.3 current (hKv1.3 channels [3]; 10 nM): approximately 95%
time for equilibrium block of hKv1.3 to develop (hKv1.3 channels [3]; 10 nM): 3.5 min
block of hKv1.3 current (words) (hKv1.3 channels [3]; 10 nM, within 3.5 min): almost completely disappeared
relief of hKv1.3 block on wash-out (hKv1.3 channels [3]; after 10 nM, within 2 minutes): did not result in a significant relief

sVm24: chemically synthesized, correctly folded Vm24; primary sequence identical to the natural peptide (AAAISCVGSPECPPKCRAQGCKNGKCMNRKCKCYYC-NH2; not fully specified (bridges); also: disulfide pairing as native peptide (not given here))
block of hKv1.3 current (hKv1.3 channels [3]; 100 pM): > 90%
block of hKv1.3 current (words) (hKv1.3 channels [3]; 100 pM): almost completely disappeared
potency in blocking hKv1.3 compared with natural toxin (hKv1.3 channels [3]; RCF at 100 pM, t-test p=0.57): as potent as the natural toxin

B1: Vm24 (peptide)
peptide: AAAISCVGSPECPPKCRAQGCKNGKCMNRKCKCYYC-NH2
modifications: disulfide 12-31, 16-33, 21-36, 6-26; N-terminus assumed
SMILES: CC[C@H](C)[C@H](NC(=O)[C@H](C)NC(=O)[C@H](C)NC(=O)[C@H](C)N)C(=O)N[C@@H](CO)C(=O)N[C@H]1CSSC[C@@H]2NC(=O)[C@H](CCCCN)NC(=O)CNC(=O)[C@H](CC(N)=O)NC(=O)[C@H](CCCCN)NC(=O)[C@@H]3CSSC[C@@H](C(N)=O)NC(=O)[C@H](Cc4ccc(O)cc4)NC(=O)[C@H](Cc4ccc(O)cc4)NC(=O)[C@@H]4CSSC[C@H](NC(=O)[C@H](CCCCN)NC(=O)[C@@H]5CCCN5C(=O)[C@@H]5CCCN5C(=O)[C@H](CSSC[C@H](NC(=O)[C@H](CCCCN)NC(=O)[C@H](CCCNC(=N)N)NC(=O)[C@H](CC(N)=O)NC(=O)[C@H](CCSC)NC2=O)C(=O)N[C@@H](CCCCN)C(=O)N4)NC(=O)[C@H](CCC(=O)O)NC(=O)[C@@H]2CCCN2C(=O)[C@H](CO)NC(=O)CNC(=O)[C@H](C(C)C)NC1=O)C(=O)N[C@@H](CCCNC(=N)N)C(=O)N[C@@H](C)C(=O)N[C@@H](CCC(N)=O)C(=O)NCC(=O)N3
remaining current fraction (RCF) at 10 nM Vm24 (hKv1.2 [4]): 0.54 RCF
remaining current fraction (RCF) of whole-cell hKv1.3 current at 10 nM Vm24 (hKv1.3 channels [5]): 0.01 RCF
remaining current fraction (RCF) at 10 nM Vm24 [6]: 0.8 RCF
Kd (hKv1.3 channel [7]): 2.9 pM
selectivity for hKv1.3 over hIKCa1 [8]: > 4500 fold
selectivity for hKv1.3 over mKv1.1 (mKv1.1 channel): ≥ 10000 fold
selectivity for hKv1.3 over hKv1.2 (hKv1.2 channel): ≥ 1500 fold
Kd (hKv1.3 channel [9]): < 3 pM
koff (hKv1.3 channel [10]): ~0.00026 s⁻¹

B2: Vm23 (peptide)
peptide: AAAISCVGSKECLPKCKAQGCKSGKCMNKKCKCYC-OH
modifications: disulfide (positions not given here); also: four disulfide bridges, pairing not given here (assumed as in Vm24)
blockage of the current at 10 nM Vm23 (hKv1.3 channels [11]): 95%
